The text below walks through data of patent publication US20060052294A1 (CINCINNATI CHILDREN S HOSPITAL MEDICAL CENTER, published 2006).

Where a chain is given by its changes, count along the chain named. Names and notes keep the numbering of the source. Some results are limits rather than exact numbers.

T1: human C5a receptor (human, UniProt P21730 1-350)
T1 construct: whole, on cells; also called C5aR-RBL cells; RBL-C5aR cells
T1 sequence (looked up): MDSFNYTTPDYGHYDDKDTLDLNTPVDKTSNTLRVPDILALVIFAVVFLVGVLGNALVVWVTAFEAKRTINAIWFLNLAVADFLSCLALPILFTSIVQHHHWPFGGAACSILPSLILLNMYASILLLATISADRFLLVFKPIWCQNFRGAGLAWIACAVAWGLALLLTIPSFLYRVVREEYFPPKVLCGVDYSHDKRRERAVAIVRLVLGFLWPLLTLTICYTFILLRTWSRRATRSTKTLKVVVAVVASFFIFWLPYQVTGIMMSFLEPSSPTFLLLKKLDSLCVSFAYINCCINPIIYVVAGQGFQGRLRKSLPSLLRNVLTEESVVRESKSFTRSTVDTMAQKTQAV

B1: C5a-(1-66,Cys27Ala)-A8B-Leu70-Tyr73 (ligand)
chain: TLQKKIEEIAAKYKHSVVKKCCYDGAAVNNDETCEQRAARISLGPRCIKAFTECCVVASQLRANISFKRLLLY
notes: also called 67-FKRLLLY-73
B2: C5a-(1-66,Cys27Arg)-A8B (ligand)
chain: B1 chain with A27R, L70S, Y73R
notes: also called A8B-Arg27; A8B Arg 27
B3: C5a-(1-66,Cys27Ala)-A8B-Del.71-73 (ligand)
chain: TLQKKIEEIAAKYKHSVVKKCCYDGAAVNNDETCEQRAARISLGPRCIKAFTECCVVASQLRANISFKRS
notes: also called C5a-(1-66, Cys27Ala)-FKRS-70; 67-FKRS-70
B4: recombinant human C5a (ligand)
chain: TLQKKIEEIAAKYKHSVVKKCCYDGACVNNDETCEQRAARISLGPRCIKAFTECCVVASQLRANISHKDMQLGR
notes: 74-residue recombinant human C5a; also called rhC5a; rC5a
B5: C5a-(1-66,Cys27Ala)-A8B (ligand)
chain: B1 chain with L70S, Y73R
notes: Mutein of human C5a, expressed in the E. coli periplasm without a fusion partner and purified on mAb 561; also called C5aRA A8B; mutein A8B
B6: C5a-(1-66,Cys27Ala)-A8B-Ala69 (ligand)
chain: B1 chain with R69A, L70S, Y73R
notes: also called A8B-Arg69Ala
B7: C5a-(1-66,Cys27Ala)-A8B-Asp69 (ligand)
chain: B1 chain with R69D, L70S, Y73R
notes: also called A8B-Arg69Asp
B8: C5a-(1-66,Cys27Ala)-A8B-Cys73 (ligand)
chain: B1 chain with L70S, Y73C
notes: also called Ab8-Cys73; 67-FKRSLLC-73
B9: C5a-(1-66,Cys27Ala)-A8B-Leu70 (ligand)
chain: B1 chain with Y73R
notes: also called 67-FKRLLLR-73
B10: C5a-(1-66,Cys27Ala)-A8B-Lys69-Ala70 (ligand)
chain: B1 chain with R69K, L70A, Y73R

The first assay has as its target T1, human C5a receptor. The experiment in a line: competition with 125I-rhC5a on RBL cells stably transfected with human C5a receptor; reference rhC5a. As to the method:
The values for rhC5a (“isolated” curve closest to the y-axis) are depicted as black circles, those for the mutein A8B as rhombi, for A8BLeu70 as triangles, for A8BLeu70Tyr73 as squares, for A8BArg as hexagons, for A8Bdel71-73 as dark-gray circles and those for A8BCys73 as light-gray circles.
(§1) For competitive binding studies, 40 μl of a reaction mixture containing a constant amount of ¹²⁵I-rhC5a as tracer (≈17000 cpm) and increasing concentrations of unlabeled C5a muteins were incubated in a microtiter plate on ice. […] The binding reaction was started by adding 25 μl of ice-cold RBL-C5aR cell suspension. After incubation on ice for 30 min, cell bound and free ¹²⁵I-rhC5a were separated by filtration of 60 μl through a microtitration-membrane plate (Multiscreen™-HV; 0.45 μm, MAHV N45, Millipore) using a vacuum manifold (Millipore). […] Punched out membranes were counted in a γ-counter (Packard, Canberra). The plot of cell-bound ¹²⁵I-rhC5a versus concentration of unlabeled competitor yields the half-maximal inhibitory concentrations (IC₅₀) (cf. FIG. 3, Table 1).
As for B1, the “fold difference of IC50 against rhC5a” value was found to be 8 fold.

On to B2, for which the “fold difference of IC50 against rhC5a” value turned out to be 16 fold.

Another assay addresses T1, human C5a receptor. The experiment in a line: competition with 125I-rhC5a tracer on RBL cells stably transfected with human C5a receptor, on ice, filtration. As to the method: as §1
In the case of B3, the IC50 (in general, the concentration at which inhibition is half-maximal) stood at 26.9 nM.

In turn, B4 registered an IC50 of 2.7 nM.

The molecule B5 showed an IC50 of 35.4 nM. Compared with the last molecule, the IC50 is about 13-fold higher.

The molecule B6 returned an IC50 of 30.1 nM.

For the molecule B1, the IC50 came out at 21.3 nM. The IC50 values of the last two molecules are within 1.5-fold of each other.

B7 came in with an IC50 of 5.4 nM.

In the case of B8, the IC50 was found to be 37.3 nM.

Turning to B9, the IC50 came out at 23.1 nM. This IC50 lies about 1.6-fold lower than the previous one.

B2 showed an IC50 of 43.1 nM.

The next assay deals with T1, human C5a receptor. Description: cell-based or functional assay.
Take B3: the “ED50 [nM] (N-acetyl-beta-D-glucosaminidase release from C5aR-RBL cells)” value (“ED50 [nM]” below) was > 4000 nM and the “ID50 [nM] (inhibition of N-acetyl-beta-D-glucosaminidase release from C5aR-RBL cells)” value is 17.4 nM.

For B4, the “ED50 [nM]” value turned out to be 3.5 nM.

Regarding B10, the ED50 [nM] (N-acetyl-beta-D-glucosaminidase release from C5aR-RBL cells) was > 4000 nM and the ID50 [nM] (inhibition of N-acetyl-beta-D-glucosaminidase release from C5aR-RBL cells) was found to be 60.8 nM.

For the molecule B5, the “ED50 [nM]” value is > 4000 nM and the “ID50 [nM] (inhibition of N-acetyl-beta-D-glucosaminidase release from C5aR-RBL cells)” value is 22.3 nM.

As for B6, the “ED50 [nM]” value turned out to be 36.8 nM.

Consider B1, for which the “ED50 [nM]” value was > 4000 nM and the “ID50 [nM] (inhibition of N-acetyl-beta-D-glucosaminidase release from C5aR-RBL cells)” value turned out to be 8.8 nM.

With B7, the “ED50 [nM]” value is 5.9 nM.

For the molecule B8, the “ED50 [nM]” value is > 4000 nM and the “ID50 [nM] (inhibition of N-acetyl-beta-D-glucosaminidase release from C5aR-RBL cells)” value was found to be 17.4 nM.

As for B9, the “ED50 [nM]” value was > 4000 nM and the “ID50 [nM] (inhibition of N-acetyl-beta-D-glucosaminidase release from C5aR-RBL cells)” value was 7.9 nM.

On to B2, for which the “ED50 [nM]” value was > 4000 nM and the “ID50 [nM] (inhibition of N-acetyl-beta-D-glucosaminidase release from C5aR-RBL cells)” value was found to be 17.5 nM.
